Experimental data from US20130129722A1.

How the values were obtained:
[1] = target: Dimeric Human Ang-2FD conjugated to human IgG1 (human); assay: SPR, human IgG1 antibody captured
[2] = target: Dimeric Monkey Ang-2FD conjugated to human IgG1 (monkey (Macca fascicularis)); assay: SPR, human IgG1 antibody captured
[3] = target: Dimeric Mouse Ang-2FD conjugated to human IgG1 (mouse (Mus musculus)); assay: SPR, human IgG1 antibody captured
[4] = target: Human Ang-2FD-hFc (human); assay: ELISA; 16.67 nM antibody premixed with Ang-2FD-hFc, binding to coated hTie-2-mFc
Sequence of Human Ang-2FD-hFc (human) (chain, as listed by the source limits assumed): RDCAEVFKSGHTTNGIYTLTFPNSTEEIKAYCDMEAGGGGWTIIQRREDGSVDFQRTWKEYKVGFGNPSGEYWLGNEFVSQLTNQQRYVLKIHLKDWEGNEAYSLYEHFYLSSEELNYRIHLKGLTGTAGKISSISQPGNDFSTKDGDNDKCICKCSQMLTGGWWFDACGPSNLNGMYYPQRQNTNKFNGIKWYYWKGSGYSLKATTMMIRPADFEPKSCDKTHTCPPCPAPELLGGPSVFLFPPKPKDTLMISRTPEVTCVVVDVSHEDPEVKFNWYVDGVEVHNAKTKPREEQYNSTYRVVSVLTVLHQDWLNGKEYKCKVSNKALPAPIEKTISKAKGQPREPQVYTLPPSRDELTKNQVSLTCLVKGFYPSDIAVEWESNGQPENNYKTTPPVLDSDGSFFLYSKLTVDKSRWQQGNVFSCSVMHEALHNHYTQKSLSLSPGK

[5] = target: Monkey Ang-2FD-hFc (monkey (Macca fascicularis)); assay: as above
Sequence of Monkey Ang-2FD-hFc (monkey (Macca fascicularis)) (chain, as listed by the source limits assumed): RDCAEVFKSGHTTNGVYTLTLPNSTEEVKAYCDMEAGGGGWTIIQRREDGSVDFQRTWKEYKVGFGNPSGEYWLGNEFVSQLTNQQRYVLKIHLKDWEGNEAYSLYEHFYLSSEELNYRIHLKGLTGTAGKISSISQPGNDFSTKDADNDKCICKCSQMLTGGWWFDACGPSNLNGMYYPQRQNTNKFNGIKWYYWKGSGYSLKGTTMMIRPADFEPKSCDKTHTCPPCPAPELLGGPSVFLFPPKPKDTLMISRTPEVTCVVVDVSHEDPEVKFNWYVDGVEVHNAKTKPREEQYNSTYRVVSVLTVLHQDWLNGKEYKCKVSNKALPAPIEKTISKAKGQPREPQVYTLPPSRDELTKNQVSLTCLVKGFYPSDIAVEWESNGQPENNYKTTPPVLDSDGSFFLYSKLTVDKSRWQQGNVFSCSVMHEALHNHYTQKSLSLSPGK

[6] = target: Mouse Ang-2FD-hFc (mouse (Mus musculus)); assay: as above
Sequence of Mouse Ang-2FD-hFc (mouse (Mus musculus)) (chain, as listed by the source limits assumed): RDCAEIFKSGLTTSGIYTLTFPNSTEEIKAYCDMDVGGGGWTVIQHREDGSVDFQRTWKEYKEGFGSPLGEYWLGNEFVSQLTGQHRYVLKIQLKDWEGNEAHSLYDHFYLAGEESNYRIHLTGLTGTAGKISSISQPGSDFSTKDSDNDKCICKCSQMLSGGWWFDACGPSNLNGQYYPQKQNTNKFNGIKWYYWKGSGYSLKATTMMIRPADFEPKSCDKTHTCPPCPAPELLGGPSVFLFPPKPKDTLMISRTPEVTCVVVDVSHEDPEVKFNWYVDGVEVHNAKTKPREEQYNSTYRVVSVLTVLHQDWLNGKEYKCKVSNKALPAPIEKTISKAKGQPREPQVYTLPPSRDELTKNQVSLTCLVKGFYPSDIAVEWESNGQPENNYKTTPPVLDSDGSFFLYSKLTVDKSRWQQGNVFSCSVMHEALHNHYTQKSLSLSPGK

B1: H1H724N (antibody, V domains shown)
VH: QVQLVESGGGVVQPGRSLRLSCAASGFTLSNYGMHWVRQAPGKGLEWVAVIWHDGSNTYYADSVKGRFTISRDNSKNTLYLQMNSLRAEDTAVYYCTREGLDFWSGYYPNWFDPWGQGTLVTVSS
VL: DIQMTQSPSSLSASVGDRVTITCRASQGIRNDLGWYQQKPGKAPKRLIYAASNLQGGVPSRFSGSGSGTEFTLTISSLQPEDFAAYYCLQHNIYPLTFGGGTKVEIK
Kd [1]: 0.115 nM | T1/2 [1]: 107 min | Kd [2]: 0.239 nM | T1/2 [2]: 173 min | Kd [3]: 0.185 nM | T1/2 [3]: 84 min | Percent Blocking of Ang-2FD Binding to Tie-2 [4]: 96.6% | Percent Blocking of Ang-2FD Binding to Tie-2 [5]: 96.6% | Percent Blocking of Ang-2FD Binding to Tie-2 [6]: 97.1%
